IC50 data for one molecule are collected here from paper PMC10713829 (2023).

For the experiment, the target named is HLA-A*01:01/hβ2m complex (empty, peptide-free or peptide-receptive) (human). The experiment in a line: FP.

In turn, ILDTAGQEEY [NRAS_(55-64) wild-type (Q61) peptide] displayed an IC50 of 278 nM.

The term IC50 denotes the midpoint of a concentration-inhibition curve. Lower therefore signals greater potency in that assay.
